Test results published in the supplement of paper PMC5998384.

What was measured:
HeLa Kyoto [1] = test: solubility in G1/S (NP-40 vs SDS abundance) (log2 ratio); higher = more soluble; settings: cell cycle stage: G1/S
HeLa Kyoto [2] = test: solubility change mitosis vs G1/S (difference of NP-40 vs SDS log2 ratios) (log2 ratio difference); higher = more soluble in mitosis
HeLa Kyoto [3] = test: melting temperature (median over replicates), in situ; higher = more thermally stable
HeLa Kyoto [4] = test: thermal stability score vs G1/S (z-score of summed log2 fold changes over temperatures); higher = more thermally stable than in G1/S
[5] = cell cycle stage: early G1 (4.5 h after nocodazole release)
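For melting temperature (median over replicates), in situ in this document: HeLa Kyoto cells synchronized by double thymidine or nocodazole block, proteins quantified by TMT10plex mass spectrometry, three independent biological replicates.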
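For solubility change mitosis vs G1/S (difference of NP-40 vs SDS log2 ratios) in this document: synchronized HeLa Kyoto cells (double thymidine block for G1/S, nocodazole release for mitosis), protein amounts in NP-40 versus SDS lysates quantified by mass spectrometry, three biological replicates.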
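For solubility in G1/S (NP-40 vs SDS abundance) in this document: HeLa Kyoto cells arrested at G1/S by double thymidine block, proteins quantified by TMT10plex mass spectrometry in mild NP-40 versus SDS extracts, three biological replicates.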
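For thermal stability score vs G1/S (z-score of summed log2 fold changes over temperatures) in this document: synchronized HeLa Kyoto cells, proteins quantified by TMT10plex mass spectrometry, three biological replicates, mitosis taken 0.5 h after nocodazole release, G1/S directly after double thymidine block.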

Row | Sequence | solubility in G1/S (log2) (HeLa Kyoto [1]) | solubility change mitosis (log2) (HeLa Kyoto [2]) | melting temperature (HeLa Kyoto [3]; cell cycle stage: G1/S) | melting temperature (HeLa Kyoto [3]; cell cycle stage: mitosis) | thermal stability score (HeLa Kyoto [4]; [5]) | thermal stability score (HeLa Kyoto [4]; cell cycle stage: mitosis)
1 | MDLYSTPAAALDRFVARRLQPRKEFVEKARRALGALAAALRERGGRLGAAAPRVLKTVKGGSSGRGTALKGGCDSELVIFLDCFKSYVDQRARRAEILSEMRASLESWWQNPVPGLRLTFPEQSVPGALQFRLTSVDLEDWMDVSLVPAFNVLGQAGSGVKPKPQVYSTLLNSGCQGGEHAACFTELRRNFVNIRPAKLKNLILLVKHWYHQVCLQGLWKETLPPVYALELLTIFAWEQGCKKDAFSLAEGLRTVLGLIQQHQHLCVFWTVNYGFEDPAVGQFLQRQLKRPRPVILDPADPTWDLGNGAAWHWDLLAQEAASCYDHPCFLRGMGDPVQSWKGPGLPRAGCSGLGHPIQLDPNQKTPENSKSLNAVYPRAGSKPPSCPAPGPTGAASIVPSVPGMALDLSQIPTKELDRFIQDHLKPSPQFQEQVKKAIDIILRCLHENCVHKASRVSKGGSFGRGTDLRDGCDVELIIFLNCFTDYKDQGPRRAEILDEMRAQLESWWQDQVPSLSLQFPEQNVPEALQFQLVSTALKSWTDVSLLPAFDAVGQLSSGTKPNPQVYSRLLTSGCQEGEHKACFAELRRNFMNIRPVKLKNLILLVKHWYRQVAAQNKGKGPAPASLPPAYALELLTIFAWEQGCRQDCFNMAQGFRTVLGLVQQHQQLCVYWTVNYSTEDPAMRMHLLGQLRKPRPLVLDPADPTWNVGHGSWELLAQEAAALGMQACFLSRDGTSVQPWDVMPALLYQTPAGDLDKFISEFLQPNRQFLAQVNKAVDTICSFLKENCFRNSPIKVIKVVKGGSSAKGTALRGRSDADLVVFLSCFSQFTEQGNKRAEIISEIRAQLEACQQERQFEVKFEVSKWENPRVLSFSLTSQTMLDQSVDFDVLPAFDALGQLVSGSRPSSQVYVDLIHSYSNAGEYSTCFTELQRDFIISRPTKLKSLIRLVKHWYQQCTKISKGRGSLPPQHGLELLTVYAWEQGGKDSQFNMAEGFRTVLELVTQYRQLCIYWTINYNAKDKTVGDFLKQQLQKPRPIILDPADPTGNLGHNARWDLLAKEAAACTSALCCMGRNGIPIQPWPVKAAV [OAS3] | -0.177 | -0.109 | 50.3 °C | 49.8 °C | 1.51 | 1.6
2 | MDMKRRIHLELRNRTPAAVRELVLDNCKSNDGKIEGLTAEFVNLEFLSLINVGLISVSNLPKLPKLKKLELSENRIFGGLDMLAEKLPNLTHLNLSGNKLKDISTLEPLKKLECLKSLDLFNCEVTNLNDYRESVFKLLPQLTYLDGYDREDQEAPDSDAEVDGVDEEEEDEEGEDEEDEDDEDGEEEEFDEEDDEDEDVEGDEDDDEVSEEEEEFGLDEEDEDEDEDEEEEEGGKGEKRKRETDDEGEDD [ANP32B] | -0.0836 | 0.205 | 48.5 °C | 53.3 °C | 2.33 | 3.78
3 | MDNQCTVQVRLELGHRAQLRKKPTTEGFTHDWMVFVRGPEQCDIQHFVEKVVFWLHDSFPKPRRVCKEPPYKVEESGYAGFIMPIEVHFKNKEEPRKVCFTYDLFLNLEGNPPVNHLRCEKLTFNNPTTEFRYKLLRAGGVMVMPEGADTVSRPSPDYPMLPTIPLSAFSDPKKTKPSHGSKDANKESSKTSKPHKVTKEHRERPRKDSESKSSSKELEREQAKSSKDTSRKLGEGRLPKEEKAPPPKAAFKEPKMALKETKLESTSPKGGPPPPPPPPPRASSKRPATADSPKPSAKKQKKSSSKGSRSAPGTSPRTSSSSSFSDKKPAKDKSSTRGEKVKAESEPREAKKALEVEESNSEDEASFKSESAQSSPSNSSSSSDSSSDSDFEPSQNHSQGPLRSMVEDLQSEESDEDDSSSGEEAAGKTNPGRDSRLSFSDSESDNSADSSLPSREPPPPQKPPPPNSKVSGRRSPESCSKPEKILKKGTYDKAYTDELVELHRRLMALRERNVLQQIVNLIEETGHFNVTNTTFDFDLFSLDETTVRKLQSCLEAVAT [MLLT1] | -0.205 | 0.264 | 50.5 °C | 53 °C | -0.27 | 0.333
4 | MDPAARVVRALWPGGCALAWRLGGRPQPLLPTQSRAGFAGAAGGPSPVAAARKGSPRLLGAAALALGGALGLYHTARWHLRAQDLHAERSAAQLSLSSRLQLTLYQYKTCPFCSKVRAFLDFHALPYQVVEVNPVRRAEIKFSSYRKVPILVAQEGESSQQLNDSSVIISALKTYLVSGQPLEEIITYYPAMKAVNEQGKEVTEFGNKYWLMLNEKEAQQVYGGKEARTEEMKWRQWADDWLVHLISPNVYRTPTEALASFDYIVREGKFGAVEGAVAKYMGAAAMYLISKRLKSRHRLQDNVREDLYEAADKWVAAVGKDRPFMGGQKPNLADLAVYGVLRVMEGLDAFDDLMQHTHIQPWYLRVERAITEASPAH [PTGES2] | 0.0509 | -0.0374 | 54.6 °C | 54.9 °C | 1.5 | 0.796
5 | MDPECAQLLPALCAVLVDPRQPVADDTCLEKLLDWFKTVTEGESSVVLLQEHPCLVELLSHVLKVQDLSSGVLSFSLRLAGTFAAQENCFQYLQQGELLPGLFGEPGPLGRATWAVPTVRSGWIQGLRSLAQHPSALRFLADHGAVDTIFSLQGDSSLFVASAASQLLVHVLALSMRGGAEGQPCLPGGDWPACAQKIMDHVEESLCSAATPKVTQALNVLTTTFGRCQSPWTEALWVRLSPRVACLLERDPIPAAHSFVDLLLCVARSPVFSSSDGSLWETVARALSCLGPTHMGPLALGILKLEHCPQALRTQAFQVLLQPLACVLKATVQAPGPPGLLDGTADDATTVDTLLASKSSCAGLLCRTLAHLEELQPLPQRPSPWPQASLLGATVTVLRLCDGSAAPASSVGGHLCGTLAGCVRVQRAALDFLGTLSQGTGPQELVTQALAVLLECLESPGSSPTVLKKAFQATLRWLLSSPKTPGCSDLGPLIPQFLRELFPVLQKRLCHPCWEVRDSALEFLTQLSRHWGGQADFRCALLASEVPQLALQLLQDPESYVRASAVTAMGQLSSQGLHAPTSPEHAEARQSLFLELLHILSVDSEGFPRRAVMQVFTEWLRDGHADAAQDTEQFVATVLQAASRDLDWEVRAQGLELALVFLGQTLGPPRTHCPYAVALPEVAPAQPLTEALRALCHVGLFDFAFCALFDCDRPVAQKSCDLLLFLRDKIASYSSLREARGSPNTASAEATLPRWRAGEQAQPPGDQEPEAVLAMLRSLDLEGLRSTLAESSDHVEKSPQSLLQDMLATGGFLQGDEADCY [BRAT1] | 0.0286 | -0.141 | 46.5 °C | 48.4 °C | 1.55 | 4.01
6 | MDPFTEKLLERTRARRENLQRKMAERPTAAPRSMTHAKRARQPLSEASNQQPLSGGEEKSCTKPSPSKKRCSDNTEVEVSNLENKQPVESTSAKSCSPSPVSPQVQPQAADTISDSVAVPASLLGMRRGLNSRLEATAASSVKTRMQKLAEQRRRWDNDDMTDDIPESSLFSPMPSEEKAASPPRPLLSNASATPVGRRGRLANLAATICSWEDDVNHSFAKQNSVQEQPGTACLSKFSSASGASARINSSSVKQEATFCSQRDGDASLNKALSSSADDASLVNASISSSVKATSPVKSTTSITDAKSCEGQNPELLPKTPISPLKTGVSKPIVKSTLSQTVPSKGELSREICLQSQSKDKSTTPGGTGIKPFLERFGERCQEHSKESPARSTPHRTPIITPNTKAIQERLFKQDTSSSTTHLAQQLKQERQKELACLRGRFDKGNIWSAEKGGNSKSKQLETKQETHCQSTPLKKHQGVSKTQSLPVTEKVTENQIPAKNSSTEPKGFTECEMTKSSPLKITLFLEEDKSLKVTSDPKVEQKIEVIREIEMSVDDDDINSSKVINDLFSDVLEEGELDMEKSQEEMDQALAESSEEQEDALNISSMSLLAPLAQTVGVVSPESLVSTPRLELKDTSRSDESPKPGKFQRTRVPRAESGDSLGSEDRDLLYSIDAYRSQRFKETERPSIKQVIVRKEDVTSKLDEKNNAFPCQVNIKQKMQELNNEINMQQTVIYQASQALNCCVDEEHGKGSLEEAEAERLLLIATGKRTLLIDELNKLKNEGPQRKNKASPQSEFMPSKGSVTLSEIRLPLKADFVCSTVQKPDAANYYYLIILKAGAENMVATPLASTSNSLNGDALTFTTTFTLQDVSNDFEINIEVYSLVQKKDPSGLDKKKKTSKSKAITPKRLLTSITTKSNIHSSVMASPGGLSAVRTSNFALVGSYTLSLSSVGNTKFVLDKVPFLSSLEGHIYLKIKCQVNSSVEERGFLTIFEDVSGFGAWHRRWCVLSGNCISYWTYPDDEKRKNPIGRINLANCTSRQIEPANREFCARRNTFELITVRPQREDDRETLVSQCRDTLCVTKNWLSADTKEERDLWMQKLNQVLVDIRLWQPDACYKPIGKP [ANLN] | -0.029 | 0.0107 | 47 °C | 49.6 °C | 5.84 | 9.22
